Assay results published in paper PMC3642079.

B1: unnamed (parent)
chain 1: MCDRNGGRRLRQWLIEQIDSSMYPGLIWENEEKSMFRIPWKHAGKQDYNQEVDASIFKAWAVFKGKFKEGDKAEPATWKTRLRCALNKSPDFEEVTDRSQLDISEPYKVYRIVPEEEQKCKLGVATAGCVNEVTEMECGRSEIDELIKEPSVDDYMGMIKRSPSPPEACRSQLLPDWWAQQPSTGVPLVTGYTTYDAHHSAFSQMVISFYYGGKLVGQATTTCPEGCRLSLSQPGLPGTKLYGPEGLELVRFPPADAIPSERQRQVTRKLFGHLERGVLLHSSRQGVFVKRLCQGRVFCSGNAVVCKGRPNKLERDEVVQVFDTSQFFRELQQFYNSQGRLPDGRVVLCFGEEFPDMAPLRSKLILVQIEQLYVRQLAEEAGKSCGAGSVMQAPEEPPPDQVFRMFPDICASHQRSFFRENQQITV
chain 2: LILDSGLDTQHILCFVMAARQRLQDIRRGP
B2: unnamed (parent)
chain 1: MNLEGGGRGGEFGMSAVSCGNGKLRQWLIDQIDSGKYPGLVWENEEKSIFRIPWKHAGKQDYNREEDAALFKAWALFKGKFREGIDKPDPPTWKTRLRCALNKSNDFEELVERSQLDISDPYKVYRIVPEGAKKGAKQLTLEDPQMSMSHPYTMTTPYPSLPAQQVHNYMMPPLDRSWRDYVPDQPHPEIPYQCPMTFGPRGHHWQGPACENGCQVTGTFYACAPPESQAPGVPTEPSIRSAEALAFSDCRLHICLYYREILVKELTTSSPEGCRISHGHTYDASNLDQVLFPYPEDNGQRKNIEKLLSHLERGVVLWMAPDGLYAKRLCQSRIYWDGPLALCNDRPNKLERDQTCKLFDTQQFLSELQAFAHHGRSLPRFQVTLCFGEEFPDPQRQRKLITAHVEPLLARQLYYFAQQNSGHFLRGYDLPEHISNPEDYHRSIRHSSIQE
chain 2: B1 chain 2

Variants of: B1
Assay: GST pull-down of S35-radiolabeled in vitro translated protein
Settings: with partner chain of the complex shown; 5% of IVT input (input lane = 5 RBU); GST control lane = 0.4 RBU; parent: 3.9

Variant	response
chain 2 C14A	3.2 RBU
chain 2 F15A	0.6 RBU
chain 2 R20G R22G	0.7 RBU

Variants of: B2
Assay: as above
Settings: with partner chain of the complex shown; 5% of IVT input (input lane = 5 RBU); GST control lane = 0.5 RBU; parent: 14.1

Variant	response
chain 2 C14A	14 RBU
chain 2 F15A	0.5 RBU
chain 2 R20G R22G	4.9 RBU
